Laboratory results published in US20220243288, “BIOSENSORS FOR POLYKETIDE EXTENDER UNITS AND USES THEREOF” (NORTH CAROLINA STATE UNIVERSITY, published 2022).

Biological target: T1, FapR (Bacillus subtilis, UniProt O34835 SEQ:1-188)
T1 sequence: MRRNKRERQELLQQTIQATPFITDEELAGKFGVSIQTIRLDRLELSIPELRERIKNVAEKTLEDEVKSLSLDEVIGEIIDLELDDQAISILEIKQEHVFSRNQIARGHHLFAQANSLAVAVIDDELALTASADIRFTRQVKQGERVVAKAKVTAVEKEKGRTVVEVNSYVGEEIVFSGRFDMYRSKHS
Test: EMSA; near-complete shift; 2 pmol fapO, 6 pmol FapR (text also says two-fold excess); 10 mM Tris pH 7.5, 100 mM KCl, 30 C; released by 200 uM malonyl-CoA or methylmalonyl-CoA
Conditions: tags: C-terminal His6 (pET28a); chain copies: 2
Text: The saturated alkyl derivatives emCoA and bmCoA were the poorest effectors, based on the fluorescence data. This robust activity of pgmCoA is due in part to the increased rigidity of the alkyne side-chain or additional interactions of the alkynyl […] with the FapR ligand-binding site, with the […] side-chain of the nearby Phe99 (FIG. 5A). Gratifyingly, de-repression was not observed in the presence of propionyl-CoA and was indistinguishable from the (−) thioester control. To provide further evidence that FapR is de-repressed by derivatives of mCoA, FapR was tested in vitro for DNA-binding and release by electrophoretic mobility shift assay (EMSA) in the presence of mCoA or mmCoA. Using purified wild-type FapR protein, EMSA was run with a 40 bp DNA fragment containing the fapO binding site (FIG. 7). […] Incubation with the FapR-fapO complex with mmCoA achieved a similar level of de-repression as that observed with mCoA (FIG. 7).
Electrophoretic mobility shift assay. The fapO oligonucleotides 5′-[…]-3′ (SEQ ID NO:30) and 5′-[…]-3′ (SEQ ID NO:31) were annealed per standard procedure. […] Reactions were then analyzed by electrophoresis on a 6% PAGE gel at 220 V. The gel was stained with SYBR Green I and imaged on a Typhoon FLA 7000.

B1: 40 bp fapO fragment (dsDNA)
DNA 1: CCTAGGACTATTAGTACCTAGTCTTAATTGTCCGGCATCC
DNA 2: GGATGCCGGACAATTAAGACTAGGTACTAATAGTCCTAGG
- binding result: binds
